According to FireProtDB (doi:10.1371/journal.pone.0064824):
Where “and” joins values, the source holds several entries; their conditions need not be identical. Identical values can stand only once.

Conditions: Homo sapiens, pH 7.5, Tris-HCl 20mM; for ddG of mutation (higher = less stable) / denaturant m value / unfolding free energy: 10 °C, Urea; for Tm: Thermal
[1] = CD, transition: 2, structure 1XWS

Sequence of Serine/threonine-protein kinase pim-1 E124Q, P11309 (P11309 whole entry E124Q): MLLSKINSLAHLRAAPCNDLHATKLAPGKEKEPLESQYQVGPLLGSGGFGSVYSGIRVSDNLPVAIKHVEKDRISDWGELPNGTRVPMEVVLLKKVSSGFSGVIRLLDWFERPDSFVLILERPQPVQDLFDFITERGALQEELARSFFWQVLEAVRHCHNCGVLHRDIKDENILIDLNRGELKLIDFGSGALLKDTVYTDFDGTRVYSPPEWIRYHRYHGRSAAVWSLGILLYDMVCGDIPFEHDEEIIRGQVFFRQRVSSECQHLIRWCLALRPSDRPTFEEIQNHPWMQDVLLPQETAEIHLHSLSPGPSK
Sequence of Serine/threonine-protein kinase pim-1 Y53H, P11309 (P11309 whole entry Y53H): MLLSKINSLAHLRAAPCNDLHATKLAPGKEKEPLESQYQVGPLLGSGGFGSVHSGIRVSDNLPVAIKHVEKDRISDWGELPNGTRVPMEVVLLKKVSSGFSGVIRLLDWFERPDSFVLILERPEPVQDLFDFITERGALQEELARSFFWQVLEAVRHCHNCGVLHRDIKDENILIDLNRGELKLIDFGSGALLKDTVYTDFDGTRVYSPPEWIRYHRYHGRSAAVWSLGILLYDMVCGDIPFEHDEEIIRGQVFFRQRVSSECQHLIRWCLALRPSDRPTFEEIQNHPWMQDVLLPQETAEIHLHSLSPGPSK
Sequence of Serine/threonine-protein kinase pim-1 E142D, P11309 (P11309 whole entry E142D): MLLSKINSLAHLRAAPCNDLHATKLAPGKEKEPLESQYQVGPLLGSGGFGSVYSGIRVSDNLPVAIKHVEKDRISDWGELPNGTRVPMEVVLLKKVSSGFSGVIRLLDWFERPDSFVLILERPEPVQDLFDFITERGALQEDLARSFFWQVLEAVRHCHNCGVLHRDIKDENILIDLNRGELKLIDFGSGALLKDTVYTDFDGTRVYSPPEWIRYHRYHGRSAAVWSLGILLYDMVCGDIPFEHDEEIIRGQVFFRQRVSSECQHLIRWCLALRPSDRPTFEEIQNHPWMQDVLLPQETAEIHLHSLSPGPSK
Sequence of Serine/threonine-protein kinase pim-1 E135K, P11309 (P11309 whole entry E135K): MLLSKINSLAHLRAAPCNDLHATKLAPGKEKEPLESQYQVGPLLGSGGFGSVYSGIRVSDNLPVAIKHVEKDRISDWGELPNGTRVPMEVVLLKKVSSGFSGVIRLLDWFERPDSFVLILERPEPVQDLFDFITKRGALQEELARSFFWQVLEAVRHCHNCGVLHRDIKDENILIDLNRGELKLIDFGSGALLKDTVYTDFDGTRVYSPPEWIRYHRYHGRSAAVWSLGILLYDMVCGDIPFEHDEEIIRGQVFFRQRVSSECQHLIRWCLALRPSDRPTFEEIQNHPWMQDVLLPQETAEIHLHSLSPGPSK
Sequence of Serine/threonine-protein kinase pim-1 wild type, P11309 (P11309 whole entry): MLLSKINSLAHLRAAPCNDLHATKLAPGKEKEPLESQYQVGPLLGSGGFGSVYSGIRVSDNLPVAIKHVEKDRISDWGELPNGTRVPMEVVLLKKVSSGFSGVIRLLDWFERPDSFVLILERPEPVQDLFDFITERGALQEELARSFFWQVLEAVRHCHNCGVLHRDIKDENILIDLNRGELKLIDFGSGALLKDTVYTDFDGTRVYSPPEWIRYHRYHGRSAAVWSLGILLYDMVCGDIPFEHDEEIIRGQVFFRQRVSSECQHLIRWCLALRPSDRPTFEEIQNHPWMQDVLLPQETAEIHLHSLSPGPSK

Row | Substance | ddG of mutation (higher = less stable) [1] | denaturant m value [1] | unfolding free energy [1] | Tm [1] | unfolding free energy (Fluorescence, transition: 4, structure 1XWS) | denaturant m value (CD, transition: 2) | unfolding free energy (CD, transition: 2) | Tm (CD, transition: 3)
1 | Serine/threonine-protein kinase pim-1 E142D, P11309 | 3.22 kcal/mol | 0.69 kcal/mol/M | 3.19 kcal/mol | 40 °C |  |  |  | 
2 | Serine/threonine-protein kinase pim-1 E124Q, P11309 |  |  |  | 44 °C | 3.46 kcal/mol and 3.08 kcal/mol and 5.22 kcal/mol |  |  | 
3 | Serine/threonine-protein kinase pim-1 Y53H, P11309 | 3.3 kcal/mol | 0.62 kcal/mol/M | 3.11 kcal/mol |  |  |  |  | 
4 | Serine/threonine-protein kinase pim-1 E135K, P11309 | 4.59 kcal/mol | 0.43 kcal/mol/M | 1.82 kcal/mol | 40.5 °C |  |  |  | 
5 | Serine/threonine-protein kinase pim-1 wild type, P11309 |  |  |  |  |  | 1.2 kcal/mol/M | 6.41 kcal/mol | 40.5 °C
